Measurements: the RNAGym collection of RNA variant scans (doi:10.7554/elife.80360)

B1: Hairpin Ribozyme (parent)
chain: GUCCUCUUUCACGUGCGCGUGAAAGAGAGAAGUGAACCAGAGAAACACACGUUGUGGUAUAUUACCUGGUA

Variants of: B1
Assay: self-cleavage, relative activity (ratio to wild type); higher = more cleavage; co-transcriptional
Work on AUCCUCUUUCUCGUGCGCGUGAAAGAGAGAAGUGAACCAGAGAAACACACGUUGUGGUAUAUUACCUGGUA [G1A A11U] yielded a self-cleavage of 0.302. AUCCUCUUUCACGUGCGCGUGCAAGAGAGAAGUGAACCAGAGAAACACACGUUGUGGUAUAUUACCUGGUA [G1A A22C] showed a self-cleavage of 0.11. Work on AUCCUCUUUCACGUGCGCGUGUAAGAGAGAAGUGAACCAGAGAAACACACGUUGUGGUAUAUUACCUGGUA [G1A A22U] yielded a self-cleavage of 0.109. AUCCUCUUUCACGUGCGCGUGAAAGGGAGAAGUGAACCAGAGAAACACACGUUGUGGUAUAUUACCUGGUA [G1A A26G] showed a self-cleavage of 0.149. For AUCCUCUUUCACGUGCGCGUGAAAGUGAGAAGUGAACCAGAGAAACACACGUUGUGGUAUAUUACCUGGUA [G1A A26U], the self-cleavage was 0.11. Work on AUCCUCUUUCACGUGCGCGUGAAAGAGAGCAGUGAACCAGAGAAACACACGUUGUGGUAUAUUACCUGGUA [G1A A30C] yielded a self-cleavage of 0.291. With AUCCUCUUUCACGUGCGCGUGAAAGAGAGGAGUGAACCAGAGAAACACACGUUGUGGUAUAUUACCUGGUA [G1A A30G] the self-cleavage was 0.231. Variant AUCCUCUUUCACGUGCGCGUGAAAGAGAGAGGUGAACCAGAGAAACACACGUUGUGGUAUAUUACCUGGUA [G1A A31G] has a self-cleavage of 0.136. In the case of AUCCUCUUUCACGUGCGCGUGAAAGAGAGAAGUGAGCCAGAGAAACACACGUUGUGGUAUAUUACCUGGUA [G1A A36G], the self-cleavage is reported as 0.088. Variant AUCCUCUUUCACGUGCGCGUGAAAGAGAGAAGUGAACCCGAGAAACACACGUUGUGGUAUAUUACCUGGUA [G1A A39C] has a self-cleavage of 0.138. In the case of AUCCUCUUUCACGUGCGCGUGAAAGAGAGAAGUGAACCGGAGAAACACACGUUGUGGUAUAUUACCUGGUA [G1A A39G], the self-cleavage is reported as 0.152. AUCCUCUUUCACGUGCGCGUGAAAGAGAGAAGUGAACCAGUGAAACACACGUUGUGGUAUAUUACCUGGUA [G1A A41U] gave a self-cleavage of 0.225. In the case of AUCCUCUUUCACGUGCGCGUGAAAGAGAGAAGUGAACCAGAGGAACACACGUUGUGGUAUAUUACCUGGUA [G1A A43G], the self-cleavage is reported as 0.2. In the case of AUCCUCUUUCACGUGCGCGUGAAAGAGAGAAGUGAACCAGAGUAACACACGUUGUGGUAUAUUACCUGGUA [G1A A43U], the self-cleavage is reported as 0.0738. In the case of AUCCUCUUUCACGUGCGCGUGAAAGAGAGAAGUGAACCAGAGACACACACGUUGUGGUAUAUUACCUGGUA [G1A A44C], the self-cleavage is reported as 0.2. For AUCCUCUUUCACGUGCGCGUGAAAGAGAGAAGUGAACCAGAGAGACACACGUUGUGGUAUAUUACCUGGUA [G1A A44G], the self-cleavage was 0.167. AUCCUCUUUCACGUGCGCGUGAAAGAGAGAAGUGAACCAGAGAACCACACGUUGUGGUAUAUUACCUGGUA [G1A A45C] gave a self-cleavage of 0.0307. AUCCUCUUUCACGUGCGCGUGAAAGAGAGAAGUGAACCAGAGAAGCACACGUUGUGGUAUAUUACCUGGUA [G1A A45G] gave a self-cleavage of 0.0977. Work on AUCCUCUUUCACGUGCGCGUGAAAGAGAGAAGUGAACCAGAGAAACCCACGUUGUGGUAUAUUACCUGGUA [G1A A47C] yielded a self-cleavage of 0.124. Variant AUCCUCUUUCACGUGCGCGUGAAAGAGAGAAGUGAACCAGAGAAACGCACGUUGUGGUAUAUUACCUGGUA [G1A A47G] has a self-cleavage of 0.123. With AUCCUCUUUCACGUGCGCGUGAAAGAGAGAAGUGAACCAGAGAAACACCCGUUGUGGUAUAUUACCUGGUA [G1A A49C] the self-cleavage was 0.0908. In the case of AUCCUCUUUCACGUGCGCGUGAAAGAGAGAAGUGAACCAGAGAAACACUCGUUGUGGUAUAUUACCUGGUA [G1A A49U], the self-cleavage is reported as 0.061. AUCCUCUUUCACGUGCGCGUGAAAGAGAGAAGUGAACCAGAGAAACACACGUUGUGGUCUAUUACCUGGUA [G1A A59C] gave a self-cleavage of 0.22. Variant AUCCUCUUUCACGUGCGCGUGAAAGAGAGAAGUGAACCAGAGAAACACACGUUGUGGUGUAUUACCUGGUA [G1A A59G] has a self-cleavage of 0.237. In the case of AUCCUCUUUCACGUGCGCGUGAAAGAGAGAAGUGAACCAGAGAAACACACGUUGUGGUAUAUUGCCUGGUA [G1A A64G], the self-cleavage is reported as 0.187. In the case of AUCCUCUUUCACGUGCGCGUGAAAGAGAGAAGUGAACCAGAGAAACACACGUUGUGGUAUAUUUCCUGGUA [G1A A64U], the self-cleavage is reported as 0.272. In the case of AUCCUCUUUCACGUGCGCGUGAAAGAGAGAAGUGAACCAGAGAAACACACGUUGUGGUAUAUUACCUGGUG [G1A A71G], the self-cleavage is reported as 0.205. In the case of AUCUUCUUUCACGUGCGCGUGAAAGAGAGAAGUGAACCAGAGAAACACACGUUGUGGUAUAUUACCUGGUA [G1A C4U], the self-cleavage is reported as 0.241. With AUCCUGUUUCACGUGCGCGUGAAAGAGAGAAGUGAACCAGAGAAACACACGUUGUGGUAUAUUACCUGGUA [G1A C6G] the self-cleavage was 0.193. AUCCUUUUUCACGUGCGCGUGAAAGAGAGAAGUGAACCAGAGAAACACACGUUGUGGUAUAUUACCUGGUA [G1A C6U] showed a self-cleavage of 0.195. Work on AUCCUCUUUUACGUGCGCGUGAAAGAGAGAAGUGAACCAGAGAAACACACGUUGUGGUAUAUUACCUGGUA [G1A C10U] yielded a self-cleavage of 0.235. With AUCCUCUUUCACGUGUGCGUGAAAGAGAGAAGUGAACCAGAGAAACACACGUUGUGGUAUAUUACCUGGUA [G1A C16U] the self-cleavage was 0.217. For AUCCUCUUUCACGUGCGAGUGAAAGAGAGAAGUGAACCAGAGAAACACACGUUGUGGUAUAUUACCUGGUA [G1A C18A], the self-cleavage was 0.185. In the case of AUCCUCUUUCACGUGCGGGUGAAAGAGAGAAGUGAACCAGAGAAACACACGUUGUGGUAUAUUACCUGGUA [G1A C18G], the self-cleavage is reported as 0.0949. Work on AUCCUCUUUCACGUGCGCGUGAAAGAGAGAAGUGAAGCAGAGAAACACACGUUGUGGUAUAUUACCUGGUA [G1A C37G] yielded a self-cleavage of 0.187. With AUCCUCUUUCACGUGCGCGUGAAAGAGAGAAGUGAACUAGAGAAACACACGUUGUGGUAUAUUACCUGGUA [G1A C38U] the self-cleavage was 0.115. AUCCUCUUUCACGUGCGCGUGAAAGAGAGAAGUGAACCAGAGAAAAACACGUUGUGGUAUAUUACCUGGUA [G1A C46A] showed a self-cleavage of 0.134. AUCCUCUUUCACGUGCGCGUGAAAGAGAGAAGUGAACCAGAGAAACAAACGUUGUGGUAUAUUACCUGGUA [G1A C48A] gave a self-cleavage of 0.156.
